Measurements published in the supplement of paper PMC10065799, “High-throughput profiling of sequence recognition by tyrosine kinases and SH2 domains using bacterial peptide display” (eLife, 2023).

What was measured:
AncSZ = assay: phosphorylation enrichment, bacterial display (enrichment ratio); higher = better substrate or ligand; peptides without Tyr show the background
EPHB1 = EPHB1 (UniProt P54762); assay: as above
EPHB2 = EPHB2 (UniProt P29323); assay: as above
FGFR1 = FGFR1 (UniProt P11362); assay: as above
Sequence of FGFR1 (P11362 whole entry, looked up): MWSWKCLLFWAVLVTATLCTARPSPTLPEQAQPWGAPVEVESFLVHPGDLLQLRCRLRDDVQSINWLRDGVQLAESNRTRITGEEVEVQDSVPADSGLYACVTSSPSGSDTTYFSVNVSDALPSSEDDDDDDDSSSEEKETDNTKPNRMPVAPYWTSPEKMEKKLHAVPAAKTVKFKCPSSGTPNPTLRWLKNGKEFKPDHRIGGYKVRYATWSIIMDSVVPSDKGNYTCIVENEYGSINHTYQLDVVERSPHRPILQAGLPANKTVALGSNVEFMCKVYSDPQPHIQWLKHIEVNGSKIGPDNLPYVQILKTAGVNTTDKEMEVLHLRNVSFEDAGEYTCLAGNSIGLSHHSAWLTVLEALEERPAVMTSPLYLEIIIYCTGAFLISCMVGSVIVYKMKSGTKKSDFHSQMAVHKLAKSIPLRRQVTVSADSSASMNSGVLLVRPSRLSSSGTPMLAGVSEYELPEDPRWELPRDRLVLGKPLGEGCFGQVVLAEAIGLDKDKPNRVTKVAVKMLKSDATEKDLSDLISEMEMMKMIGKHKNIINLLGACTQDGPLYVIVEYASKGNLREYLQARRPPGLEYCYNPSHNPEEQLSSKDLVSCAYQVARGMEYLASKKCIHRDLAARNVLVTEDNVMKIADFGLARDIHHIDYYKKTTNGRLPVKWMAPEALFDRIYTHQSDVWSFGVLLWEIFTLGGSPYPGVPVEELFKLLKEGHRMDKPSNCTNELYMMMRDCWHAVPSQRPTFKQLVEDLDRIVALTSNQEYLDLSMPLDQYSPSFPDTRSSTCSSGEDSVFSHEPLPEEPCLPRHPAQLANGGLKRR

FGFR3 = FGFR3 (UniProt P22607); assay: as above
Sequence of FGFR3 (P22607 whole entry, looked up): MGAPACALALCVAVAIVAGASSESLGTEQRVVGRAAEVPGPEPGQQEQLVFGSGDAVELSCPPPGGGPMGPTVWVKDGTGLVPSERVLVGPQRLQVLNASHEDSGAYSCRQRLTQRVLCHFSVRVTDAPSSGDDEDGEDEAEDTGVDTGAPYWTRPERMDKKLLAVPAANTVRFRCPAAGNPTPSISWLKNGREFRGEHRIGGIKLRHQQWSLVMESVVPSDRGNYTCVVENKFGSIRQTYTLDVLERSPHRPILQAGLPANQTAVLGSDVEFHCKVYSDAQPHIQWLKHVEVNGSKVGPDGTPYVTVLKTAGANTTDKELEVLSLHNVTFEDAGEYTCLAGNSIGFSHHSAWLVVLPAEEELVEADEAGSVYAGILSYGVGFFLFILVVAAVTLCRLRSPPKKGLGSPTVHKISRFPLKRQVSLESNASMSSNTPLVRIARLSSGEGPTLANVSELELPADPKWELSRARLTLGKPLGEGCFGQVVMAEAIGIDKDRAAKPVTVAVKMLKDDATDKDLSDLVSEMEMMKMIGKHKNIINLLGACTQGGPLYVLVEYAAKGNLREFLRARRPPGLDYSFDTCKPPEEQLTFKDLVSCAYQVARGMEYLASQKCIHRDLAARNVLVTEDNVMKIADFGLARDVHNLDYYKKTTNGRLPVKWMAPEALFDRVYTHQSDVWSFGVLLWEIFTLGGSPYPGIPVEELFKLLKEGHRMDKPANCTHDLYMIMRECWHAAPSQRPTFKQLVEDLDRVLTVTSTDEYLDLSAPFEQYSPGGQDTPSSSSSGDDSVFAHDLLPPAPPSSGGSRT

Fer (mouse) = assay: as above
Fes = Fes (UniProt P07332); assay: as above
Sequence of Fes (P07332 whole entry, looked up): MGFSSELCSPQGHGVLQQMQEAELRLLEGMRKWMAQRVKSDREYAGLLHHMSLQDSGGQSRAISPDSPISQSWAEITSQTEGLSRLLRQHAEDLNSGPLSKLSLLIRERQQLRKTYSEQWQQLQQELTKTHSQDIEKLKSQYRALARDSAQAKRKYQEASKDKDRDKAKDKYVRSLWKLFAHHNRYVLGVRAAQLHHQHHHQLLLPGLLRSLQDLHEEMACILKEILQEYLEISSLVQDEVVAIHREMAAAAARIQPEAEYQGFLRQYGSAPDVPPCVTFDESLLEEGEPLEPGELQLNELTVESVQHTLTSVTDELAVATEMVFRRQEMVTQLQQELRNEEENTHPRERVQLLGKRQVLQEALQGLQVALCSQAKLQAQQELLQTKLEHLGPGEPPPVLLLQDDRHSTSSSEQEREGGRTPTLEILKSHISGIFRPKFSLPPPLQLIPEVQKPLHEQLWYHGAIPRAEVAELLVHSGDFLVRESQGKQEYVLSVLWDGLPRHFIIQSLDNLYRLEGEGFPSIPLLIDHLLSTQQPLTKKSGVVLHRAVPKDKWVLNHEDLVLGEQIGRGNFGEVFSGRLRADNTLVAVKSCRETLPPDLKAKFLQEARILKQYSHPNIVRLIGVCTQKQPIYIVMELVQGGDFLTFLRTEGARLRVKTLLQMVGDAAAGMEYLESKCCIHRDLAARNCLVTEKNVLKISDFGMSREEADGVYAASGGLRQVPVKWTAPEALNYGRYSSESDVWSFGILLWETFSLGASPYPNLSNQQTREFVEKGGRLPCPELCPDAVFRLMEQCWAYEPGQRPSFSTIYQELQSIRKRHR

Fyn = Fyn (UniProt P06241); assay: as above
Sequence of Fyn (P06241 whole entry, looked up): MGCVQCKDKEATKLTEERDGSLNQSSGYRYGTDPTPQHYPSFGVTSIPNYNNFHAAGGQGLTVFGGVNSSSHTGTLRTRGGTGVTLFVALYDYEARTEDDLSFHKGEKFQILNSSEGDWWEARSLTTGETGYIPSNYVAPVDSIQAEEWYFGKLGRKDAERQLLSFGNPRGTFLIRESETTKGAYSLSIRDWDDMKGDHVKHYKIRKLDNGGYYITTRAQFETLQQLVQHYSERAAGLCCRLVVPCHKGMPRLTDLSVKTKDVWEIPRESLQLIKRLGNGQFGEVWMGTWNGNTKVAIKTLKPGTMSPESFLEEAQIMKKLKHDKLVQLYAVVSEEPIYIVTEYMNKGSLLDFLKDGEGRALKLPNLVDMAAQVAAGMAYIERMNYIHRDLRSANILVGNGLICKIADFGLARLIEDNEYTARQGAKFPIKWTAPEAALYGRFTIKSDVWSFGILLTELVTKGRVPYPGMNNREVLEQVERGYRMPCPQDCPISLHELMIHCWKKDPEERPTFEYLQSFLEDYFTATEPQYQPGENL

Hck = Hck (UniProt P08631); assay: as above
Sequence of Hck (P08631 whole entry, looked up): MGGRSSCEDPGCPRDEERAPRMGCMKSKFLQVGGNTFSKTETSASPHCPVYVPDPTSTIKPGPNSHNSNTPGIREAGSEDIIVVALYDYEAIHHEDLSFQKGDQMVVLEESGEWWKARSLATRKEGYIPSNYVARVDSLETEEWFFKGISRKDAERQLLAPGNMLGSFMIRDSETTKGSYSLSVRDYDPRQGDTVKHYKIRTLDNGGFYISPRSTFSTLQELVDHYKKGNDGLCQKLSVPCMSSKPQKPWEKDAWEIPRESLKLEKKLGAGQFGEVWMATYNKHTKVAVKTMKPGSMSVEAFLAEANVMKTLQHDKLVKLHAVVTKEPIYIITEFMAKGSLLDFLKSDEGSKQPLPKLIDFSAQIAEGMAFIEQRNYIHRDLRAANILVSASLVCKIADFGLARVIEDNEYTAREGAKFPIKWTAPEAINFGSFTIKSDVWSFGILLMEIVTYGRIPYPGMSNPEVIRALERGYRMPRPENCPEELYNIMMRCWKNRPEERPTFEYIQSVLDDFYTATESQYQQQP

Jak2 = Jak2 (UniProt O60674); assay: as above
MERTK = MERTK (UniProt Q12866); assay: as above
c-Abl (mouse) = assay: as above
c-Src = assay: as above
Grb2 SH2 = Grb2 SH2 (UniProt P62993); assay: SH2 binding enrichment of the phosphorylated peptide, bacterial display (enrichment ratio); higher = better substrate or ligand; peptides without Tyr show the background
SHP2-C SH2 = assay: as above
c-Src SH2 = assay: as above
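Throughout, for SH2 binding enrichment of the phosphorylated peptide, bacterial display: peptide library displayed on the E. coli surface as eCPX fusions, selected cells deep-sequenced, score is each peptide's frequency after selection divided by its frequency in the input.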
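Throughout, for phosphorylation enrichment, bacterial display: 11-residue human phosphosite peptides and single-mutation variants displayed on the E. coli surface, counted by deep sequencing, each peptide's frequency after selection divided by its frequency in the unselected input library; frequency after pTyr selection over input frequency; kinase dosed for 20-30% of maximal phosphorylation in three min.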

Sequence of EPHB2 (P29323 whole entry, looked up): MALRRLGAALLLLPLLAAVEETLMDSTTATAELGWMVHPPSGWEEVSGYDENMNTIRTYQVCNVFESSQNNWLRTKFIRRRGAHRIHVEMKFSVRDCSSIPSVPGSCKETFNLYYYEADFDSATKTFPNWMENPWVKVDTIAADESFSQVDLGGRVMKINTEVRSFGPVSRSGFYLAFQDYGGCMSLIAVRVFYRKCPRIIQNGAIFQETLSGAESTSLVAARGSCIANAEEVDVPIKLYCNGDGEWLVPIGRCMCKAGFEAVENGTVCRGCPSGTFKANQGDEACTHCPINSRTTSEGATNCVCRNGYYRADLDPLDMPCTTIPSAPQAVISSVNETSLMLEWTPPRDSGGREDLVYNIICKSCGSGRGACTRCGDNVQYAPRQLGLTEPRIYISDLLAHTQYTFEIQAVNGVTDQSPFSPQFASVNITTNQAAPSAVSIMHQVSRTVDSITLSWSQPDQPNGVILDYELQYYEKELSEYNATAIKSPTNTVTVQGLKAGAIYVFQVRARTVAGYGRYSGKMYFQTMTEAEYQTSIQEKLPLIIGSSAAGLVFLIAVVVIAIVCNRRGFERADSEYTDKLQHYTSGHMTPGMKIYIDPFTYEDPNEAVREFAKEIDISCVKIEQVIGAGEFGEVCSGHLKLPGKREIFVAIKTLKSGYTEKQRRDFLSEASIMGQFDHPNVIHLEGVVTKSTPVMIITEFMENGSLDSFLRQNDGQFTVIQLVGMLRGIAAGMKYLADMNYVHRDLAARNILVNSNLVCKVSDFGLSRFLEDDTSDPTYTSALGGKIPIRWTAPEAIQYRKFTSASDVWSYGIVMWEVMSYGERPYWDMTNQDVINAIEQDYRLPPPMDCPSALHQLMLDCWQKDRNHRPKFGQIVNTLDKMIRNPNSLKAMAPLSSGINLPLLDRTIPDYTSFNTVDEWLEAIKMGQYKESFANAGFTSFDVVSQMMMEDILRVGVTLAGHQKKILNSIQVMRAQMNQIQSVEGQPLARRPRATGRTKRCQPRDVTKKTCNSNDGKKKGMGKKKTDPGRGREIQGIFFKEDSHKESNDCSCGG

Sequence | SH2 binding enrichment (Grb2 SH2) | SH2 binding enrichment (SHP2-C SH2) | SH2 binding enrichment (c-Src SH2) | phosphorylation enrichment (AncSZ) | phosphorylation enrichment (EPHB1) | phosphorylation enrichment (EPHB2) | phosphorylation enrichment (FGFR1) | phosphorylation enrichment (FGFR3) | phosphorylation enrichment (Fer (mouse)) | phosphorylation enrichment (Fes) | phosphorylation enrichment (Fyn) | phosphorylation enrichment (Hck) | phosphorylation enrichment (Jak2) | phosphorylation enrichment (MERTK) | phosphorylation enrichment (c-Abl (mouse)) | phosphorylation enrichment (c-Src)
NKPTVCGVSPN [ABL1_Y226_Y226C] | 0.952 | 0.841 | 0.559 | 0.655 | 0.476 | 0.536 | 0.526 | 0.589 | 0.441 | 0.919 | 0.439 | 0.404 | 0.759 | 0.467 | 0.996 | 0.5
NKYTTYLPRLP [C9orf24_Y126] | 0.905 | 0.776 | 0.991 | 0.575 | 0.454 | 0.386 | 0.402 | 0.418 | 0.38 | 0.684 | 0.51 | 0.714 | 0.706 | 0.483 | 0.625 | 0.616
NNPAYYVLEGV [INPPL1_Y987] | 0.803 | 1.02 | 3.65 | 1.15 | 0.764 | 0.69 | 15.9 | 13.1 | 0.525 | 0.997 | 1.65 | 1.11 | 4.89 | 9.04 | 0.711 | 1.63
NRDNTYNRVSE [FGA_Y127] | 0.758 | 0.775 | 1.59 | 0.603 | 0.472 | 0.407 | 0.38 | 0.469 | 0.395 | 0.728 | 0.425 | 0.457 | 0.678 | 0.329 | 0.762 | 0.405
NRLTDYFEPLL [BBS10_Y536_YF] | 1.02 | 0.842 | 0.711 | 1.71 | 2.54 | 1.16 | 6.99 | 4.38 | 0.468 | 0.993 | 0.755 | 0.548 | 0.959 | 0.381 | 0.675 | 0.406
NSIGNYFKPWF [DHCR24_Y299_YF] | 1.05 | 5.38 | 0.899 | 1.03 | 8.66 | 5.26 | 1.64 | 1.41 | 0.424 | 0.99 | 0.45 | 0.492 | 7.86 | 4.54 | 8.06 | 0.458
NTILLYHIMAW [GPR143_Y157_S152N] | 0.801 | 0.829 | 0.577 | 1.52 | 5.65 | 3.9 | 3.19 | 3.15 | 0.89 | 1.62 | 0.8 | 1.56 | 2.07 | 4.42 | 1.25 | 1.27
NTPNAYLRVNV [ADD2_Y440_T439A] | 0.856 | 1.12 | 0.499 | 0.868 | 0.463 | 0.465 | 0.437 | 0.667 | 0.405 | 0.934 | 0.437 | 0.469 | 0.806 | 0.404 | 0.706 | 0.391
NTYENYWPFYQ [GATM_Y103_K102N] | 9.03 | 1.81 | 2.78 | 2.72 | 17.2 | 22.2 | 14.3 | 12.4 | 8.56 | 4.54 | 9.01 | 7.34 | 5.55 | 9.93 | 2.79 | 7.27
NVDGKYSYLKV [GRM3_Y478_G475D] | 0.752 | 1.35 | 3.85 | 0.705 | 0.569 | 0.59 | 0.563 | 0.507 | 0.515 | 0.878 | 0.444 | 0.554 | 0.825 | 0.559 | 0.557 | 0.432

Now from value to sequence, other results behind:

SH2 binding enrichment (Grb2 SH2) | SH2 binding enrichment (SHP2-C SH2) | SH2 binding enrichment (c-Src SH2) | Sequence | phosphorylation enrichment (AncSZ) | phosphorylation enrichment (EPHB1) | phosphorylation enrichment (EPHB2) | phosphorylation enrichment (FGFR1) | phosphorylation enrichment (FGFR3) | phosphorylation enrichment (Fer (mouse)) | phosphorylation enrichment (Fes) | phosphorylation enrichment (Fyn) | phosphorylation enrichment (Hck) | phosphorylation enrichment (Jak2) | phosphorylation enrichment (MERTK) | phosphorylation enrichment (c-Abl (mouse)) | phosphorylation enrichment (c-Src)
0.681 | 0.551 | 0.399 | NLFIEYPTGSG [IRF2BPL_Y423_K418N] | 1.14 | 0.504 | 0.548 | 0.582 | 0.7 | 0.639 | 1.02 | 0.568 | 0.497 | 0.828 | 0.519 | 0.95 | 0.56
0.857 | 0.547 | 0.572 | NQDRTYFERVR [SPEN_Y632_S635R_YF] | 0.607 | 0.473 | 0.411 | 0.421 | 0.522 | 0.401 | 0.648 | 0.419 | 0.812 | 0.601 | 0.377 | 0.538 | 0.567
1.05 | 0.81 | 0.782 | NTADYYDLYGG [PTPN11_Y63_G60A] | 3.44 | 14.9 | 14.7 | 16.2 | 15.3 | 1.59 | 1.47 | 6.09 | 5.89 | 3.39 | 3.04 | 1.13 | 5.99
0.952 | 0.781 | 0.544 | NTDETYCIDNE [TUBB2B_Y200] | 1.47 | 0.813 | 0.797 | 0.64 | 1.14 | 0.724 | 1.57 | 0.795 | 0.728 | 1.53 | 0.598 | 0.982 | 0.809
0.928 | 0.871 | 5.92 | NTGGYYDLYGG [PTPN11_Y63_D61G] | 1.51 | 1.98 | 3.74 | 13.3 | 10.8 | 3.33 | 1.18 | 8.66 | 8.38 | 5.82 | 7.92 | 0.756 | 5.05
0.59 | 0.766 | 0.743 | NTGVFYDLFGG [PTPN11_Y63_D61V_YF] | 0.99 | 0.609 | 0.986 | 0.455 | 0.638 | 2.86 | 1.12 | 3.21 | 2.84 | 0.958 | 7.01 | 0.797 | 4.82
1.04 | 1.02 | 0.619 | NTQRPYFKGGG [TYROBP_Y111_YF] | 0.533 | 0.429 | 0.372 | 0.364 | 0.467 | 0.437 | 0.613 | 0.428 | 0.326 | 0.904 | 0.454 | 0.574 | 0.461
